Experimental data: patent US20140377282A1 (APEXIGEN, published 2014)

T1: rabbit Fc-fusion protein of human VEGFR3 (human; rabbit, UniProt P35916 25-775, limits assumed)
T1 construct: not shown: rabbit immunoglobulin Fc
T1 sequence (looked up): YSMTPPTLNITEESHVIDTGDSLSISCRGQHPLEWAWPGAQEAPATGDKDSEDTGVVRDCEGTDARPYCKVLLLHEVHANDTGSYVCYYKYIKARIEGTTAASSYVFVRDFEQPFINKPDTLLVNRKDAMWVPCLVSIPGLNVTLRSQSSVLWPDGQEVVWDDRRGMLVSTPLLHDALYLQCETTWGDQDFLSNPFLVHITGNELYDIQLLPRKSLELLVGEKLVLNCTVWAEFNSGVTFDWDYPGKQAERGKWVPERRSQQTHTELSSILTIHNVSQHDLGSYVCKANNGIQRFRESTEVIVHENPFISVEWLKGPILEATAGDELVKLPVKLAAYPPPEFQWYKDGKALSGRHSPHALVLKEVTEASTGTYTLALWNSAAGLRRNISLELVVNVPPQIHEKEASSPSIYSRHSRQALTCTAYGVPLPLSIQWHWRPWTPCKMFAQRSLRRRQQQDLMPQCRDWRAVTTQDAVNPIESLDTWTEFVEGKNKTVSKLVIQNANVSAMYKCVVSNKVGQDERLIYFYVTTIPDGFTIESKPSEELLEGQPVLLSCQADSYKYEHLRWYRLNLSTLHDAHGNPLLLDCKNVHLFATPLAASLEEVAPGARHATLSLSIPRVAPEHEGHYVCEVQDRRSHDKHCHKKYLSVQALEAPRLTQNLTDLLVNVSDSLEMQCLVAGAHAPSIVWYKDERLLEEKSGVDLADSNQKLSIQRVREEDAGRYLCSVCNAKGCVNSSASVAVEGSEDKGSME


Columns and labels:
[1] = biological target: T2, recombinant human KDR (human, UniProt P35968 20-764, limits assumed); test: inhibition of KDR binding to VEGF, ligand-receptor binding assay
T2 construct: also called VEGFR2

[2] = biological target: T2, recombinant human KDR; test: ELISA: antibody pre-incubated with 5 µg/ml recombinant human KDR, then transferred to a VEGF-coated plate; KDR bound to VEGF detected (OD405); blocked ligand VEGF
Procedure: (§1) An ELISA-based KDR-VEGF binding assay was developed and used to assess the potency of APX004 at blocking KDR binding to VEGF. A total of 2 μg/ml VEGF was coated on ELISA plates. APX004, the parental rabbit antibody R-36 or IgG1 isotype control antibody were pre-incubated with 5 μg/ml recombinant human KDR before being transferred to the VEGF-A coated ELISA plates. KDR bound to immobilized VEGF was detected by a mouse anti-KDR monoclonal antibody, followed by the addition of goat anti-mouse IgG conjugated with alkaline phosphatase (Fisher Scientific/Pierce Biotechnology, Rockford, Ill.). ELISA plates were developed with p-nitrophenyl phosphate substrate and absorbance at 405 nm was recorded. All experiments were performed in triplicate.

[3] = biological target: T2, recombinant human KDR; test: method not stated
[4] = biological target: T3, mouse KDR (mouse, UniProt P35918 20-762, limits assumed); test: restated in the summary of the Examples
T3 construct: also called murine KDR

[5] = biological target: T4, rabbit Fc-fusion protein of human VEGFR1 (human; rabbit, UniProt P17948 27-758, limits assumed); test: direct ELISA: 1 µg/ml protein coated, 1 µg/ml APX004, goat anti-human HRP-conjugated IgG
T4 construct: also called Flt-1; not shown: rabbit immunoglobulin Fc
Procedure: (§2) Binding selectivity of APX004 was assessed by direct ELISA to VEGFR family proteins. A total of 1 μg/ml of rabbit Fc-fusion protein of human KDR, mouse KDR, human VEGFR1, human VEGFR3, human OX40L and human VEGF were coated on ELISA plates followed by incubation with 1 μg/ml of APX004. Bound APX004 was detected using goat anti-human HRP-conjugated IgG.

[6] = biological target: T5, human VEGF (coated in the selectivity ELISA) (human, UniProt P15692-4 27-191, limits assumed); test: as above
T5 construct: the sentence lists it last after 'rabbit Fc-fusion protein of'
Procedure: as §2

[7] = biological target: T6, rabbit Fc-fusion protein of mouse KDR (mouse; rabbit, UniProt P35918 20-762, limits assumed); test: as above
T6 construct: not shown: rabbit immunoglobulin Fc
Procedure: as §2

[8] = biological target: T1, rabbit Fc-fusion protein of human VEGFR3; test: as above
Procedure: as §2

[9] = biological target: T2, recombinant human KDR; test: competition ELISA: APX004 pre-incubated with 5 µg/ml recombinant human KDR, then on coated VEGF-A; bound KDR detected
Procedure: as §1

T2 sequence (P35968 20-764 limits assumed): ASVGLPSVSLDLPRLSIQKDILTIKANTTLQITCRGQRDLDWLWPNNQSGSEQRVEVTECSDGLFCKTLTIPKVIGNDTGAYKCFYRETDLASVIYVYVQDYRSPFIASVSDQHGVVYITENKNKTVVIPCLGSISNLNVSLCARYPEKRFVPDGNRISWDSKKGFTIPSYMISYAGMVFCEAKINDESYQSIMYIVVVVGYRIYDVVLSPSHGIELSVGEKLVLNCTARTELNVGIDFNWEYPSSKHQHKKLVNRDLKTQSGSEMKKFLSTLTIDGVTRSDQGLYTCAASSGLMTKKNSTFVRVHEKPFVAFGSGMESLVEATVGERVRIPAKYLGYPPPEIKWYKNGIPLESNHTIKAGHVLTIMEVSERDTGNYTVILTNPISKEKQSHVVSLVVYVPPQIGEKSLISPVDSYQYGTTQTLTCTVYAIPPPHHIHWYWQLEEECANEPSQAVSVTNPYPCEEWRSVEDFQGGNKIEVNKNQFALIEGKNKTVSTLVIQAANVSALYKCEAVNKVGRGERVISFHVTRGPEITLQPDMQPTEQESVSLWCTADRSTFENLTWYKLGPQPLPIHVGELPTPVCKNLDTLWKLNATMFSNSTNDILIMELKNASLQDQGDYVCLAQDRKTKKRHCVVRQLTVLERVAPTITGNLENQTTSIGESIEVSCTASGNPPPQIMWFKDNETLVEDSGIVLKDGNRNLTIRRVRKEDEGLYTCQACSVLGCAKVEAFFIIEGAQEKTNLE
T3 sequence (P35918 20-762 limits assumed): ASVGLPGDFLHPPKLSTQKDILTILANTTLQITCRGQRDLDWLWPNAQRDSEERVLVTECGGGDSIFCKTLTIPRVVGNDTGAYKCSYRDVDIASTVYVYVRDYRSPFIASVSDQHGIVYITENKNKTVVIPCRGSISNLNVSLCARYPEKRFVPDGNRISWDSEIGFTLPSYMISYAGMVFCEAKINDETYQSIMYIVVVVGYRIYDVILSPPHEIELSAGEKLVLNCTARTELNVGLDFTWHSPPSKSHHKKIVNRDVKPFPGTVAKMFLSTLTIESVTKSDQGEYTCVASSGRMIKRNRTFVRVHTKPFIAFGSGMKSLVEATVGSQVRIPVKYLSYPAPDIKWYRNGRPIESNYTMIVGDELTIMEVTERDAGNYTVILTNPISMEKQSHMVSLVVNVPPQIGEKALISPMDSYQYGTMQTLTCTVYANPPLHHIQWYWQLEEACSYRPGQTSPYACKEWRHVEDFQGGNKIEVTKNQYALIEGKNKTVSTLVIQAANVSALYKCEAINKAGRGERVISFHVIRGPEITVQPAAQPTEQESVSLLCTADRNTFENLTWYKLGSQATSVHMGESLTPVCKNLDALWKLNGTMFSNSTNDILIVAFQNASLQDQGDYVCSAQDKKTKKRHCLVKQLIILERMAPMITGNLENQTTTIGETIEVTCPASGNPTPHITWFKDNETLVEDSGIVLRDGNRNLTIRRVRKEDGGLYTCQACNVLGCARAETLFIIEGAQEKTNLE
T6 sequence (P35918 20-762 limits assumed): as above
T5 sequence (P15692 other isoform, or with tags, fused parts or gaps limits assumed): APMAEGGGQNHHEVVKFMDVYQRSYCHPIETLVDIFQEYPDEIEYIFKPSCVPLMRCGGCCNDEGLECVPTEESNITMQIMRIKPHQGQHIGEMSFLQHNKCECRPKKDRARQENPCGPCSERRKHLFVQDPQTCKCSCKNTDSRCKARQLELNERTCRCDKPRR
T4 sequence (P17948 27-758 limits assumed): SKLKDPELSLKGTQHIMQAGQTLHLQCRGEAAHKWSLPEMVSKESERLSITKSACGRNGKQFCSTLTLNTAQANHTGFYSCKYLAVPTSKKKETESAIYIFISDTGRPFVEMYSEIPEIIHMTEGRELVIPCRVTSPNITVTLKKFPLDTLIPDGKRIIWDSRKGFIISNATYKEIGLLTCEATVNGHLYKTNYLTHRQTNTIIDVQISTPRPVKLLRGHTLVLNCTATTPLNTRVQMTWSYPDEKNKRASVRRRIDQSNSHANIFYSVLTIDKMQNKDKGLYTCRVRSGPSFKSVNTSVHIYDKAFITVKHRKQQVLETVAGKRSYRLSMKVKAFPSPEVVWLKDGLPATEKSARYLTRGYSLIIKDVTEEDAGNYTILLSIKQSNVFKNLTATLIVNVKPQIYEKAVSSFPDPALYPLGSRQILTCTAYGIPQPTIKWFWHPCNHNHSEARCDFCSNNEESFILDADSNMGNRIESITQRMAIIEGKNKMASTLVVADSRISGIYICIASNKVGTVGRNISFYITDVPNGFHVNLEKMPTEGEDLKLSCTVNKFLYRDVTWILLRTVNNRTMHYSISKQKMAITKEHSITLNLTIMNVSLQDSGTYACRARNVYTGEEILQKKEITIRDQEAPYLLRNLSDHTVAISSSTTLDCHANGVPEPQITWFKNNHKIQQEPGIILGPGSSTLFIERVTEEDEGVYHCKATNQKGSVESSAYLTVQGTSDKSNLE

Binder	IC50 [1] [nM]	further results
rabbit anti-KDR antibody clone 43 (antibody, V domains shown, rabbit monoclonal antibody, recombinantly expressed and purified for characterization) VH: QSVEESGGRLVTPGTPLTLTCTVSGFSLSSYAMSWFRQAPGKGLEWIGLIRSSGATYYASWAKGRFTISKASTTVDLKFTSPTTEDTATYFCARVLWPGDIAYAYHNIWGPGTLVTVSS VL: DLVMTQTPSPVSAAVGGTVTINCQASEEIGGNLAWYQQKPGQPPKLLIYSASTLTSGVPSRFKGSGSGTEYTLTISDLECADAATYYCQYTYYGFSYVGPFGGGTEVVVK	7.54	
rabbit anti-KDR antibody clone 83 (antibody, V domains shown, rabbit monoclonal antibody, recombinantly expressed and purified for characterization) VH: QSLEESGGRLVTPGTPLTLTCTVSGIDLSAYAMSWVRQAPGKGLEWIGLIRSSGATYYASWAKGRFTISKTSTTVDLKMTSPTTEDTATYFCARVLWPGEIAYAYHNIWGPGTLVTVSS VL: DVVMTQTPASVSEPVGGTVTINCQASEEIGGNLAWYQQKPGQPPKLLIYSASSLTSGVPSRFKGSESGTEYTLTISDLECADAATYYCQYSYYGFNYVGPFGGGTEVVVK	9.77	
rabbit anti-KDR antibody clone 81 (antibody, V domains shown, rabbit monoclonal antibody, recombinantly expressed and purified for characterization) VH: QSVEESGGRLVTPGTPLTLTCTVSGFSLSTYAMSWFRQAPGKGLEWIGLIRSSGATYYASWAKGRFTISKASTTVDLKFTSPTTEDTATYFCARVLWPGDIAYAYHNIWGPGTLVTVSS VL: DLVMTQTPSPVSAAVGGTVTINCQASEEIGGNLAWYQQKPGQPPKLLIYSASTLTSGVPSRFKGSGSGTEYTLTINDLECADAATYYCQYPYYGFSYVGPFGGGTEVVVK	4.56	
APX004 (humanized clone 36 anti-KDR antibody) (antibody, human IgG1, kappa, V domains shown, also called humanized 36) VH: EVQLVESGGGLVQPGGSLRLSCAASGFDLSSYAMSWVRQAPGKGLEWVGIIGSGGSTYYASWAKGRFTISKDSSKNTVYLQMNSLRAEDTAVYFCARVLWAGSVAYAYHNIWGPGTLVTVSS VL: DIQMTQSPSSLSASVGDRVTINCQASEELGSNLAWYQQKPGKPPKLLIYSASTLASGVPSRFSGSGSGTDYTLTISSLQPEDFATYYCQYTYFGSSYLGAFGGGTKVEIKR		Kd [3]: 0.053 nM; binding result [4]: binds; binding result [5]: no binding (tested: 1 µg/ml); binding result [6]: no binding (tested: 1 µg/ml); binding result [7]: binds; binding result [8]: no binding (tested: 1 µg/ml); IC50 [9]: 2.6 nM
rabbit anti-KDR antibody clone 92 (antibody, V domains shown, rabbit monoclonal antibody, recombinantly expressed and purified for characterization) VH: QSVEESGGRLVTPGTPLTLTCTVSGFSLSSNAMSWVRQAPGEGLEWIGTISSSGSTYYATWVKGRFTISKTSTTVDLKMTSLTAADTATYFCARGDDDVSDYFYYFPIWGPGTLVTVSS VL: AVVLTQTASPVSGAVGGTVTIKCQASQNIYNNLAWYRQKPGQPPKLLIYAASKLASGVPSRFSGSRSGTQFTLSISDLECADAATYYCQSYYFDSSSTDAAFGGGTEVVVK	32.9	

Further binders by falling IC50 [1], results first:

IC50 [1] [nM]	Binder	further results
21.4	rabbit anti-KDR antibody clone 23 (antibody, V domains shown, rabbit monoclonal antibody, recombinantly expressed and purified for characterization) VH: QSVEESGGRLVTPGTPLTLTCTVSGFSLSSNAMSWVRQAPGEGLEWIGTISSSGSTYYATWVKGRFTISKTSTTVDLKMTSLTAADTATYFCARGDDDVSDYFYYFPIWGPGTLVTVSS VL: AVVLTQTASPVSGAVGGTVTIKCQASQNIYNNLAWYRQKPGQPPKLLIYAASKLASGVPSRFSGSRSGTQFTLSISDLECADAATYYCQSYYFDSSSTDAAFGGGTEVVVK	
19.8	rabbit anti-KDR antibody clone 24 (antibody, V domains shown, rabbit monoclonal antibody, recombinantly expressed and purified for characterization) VH: QSVEESGGRLVTPGTPLTLTCTVSGFSLSSNAMSWVRQAPGEGLEWIGTISSSGSTYYATWVKGRFTISKTSTTVDLKMTSLTAADTATYFCARGDDDVSDYFYYFPIWGPGTLVTVSS VL: AVVLTQTASPVSGAVGGTVTIKCQASQNIYNNLAWYRQKPGQPPKLLIYAASKLASGVPSRFSGSRSGTQFTLSISDLECADAATYYCQSYYFDSSSTDAAFGGGTEVVVK	
17.5	rabbit anti-KDR antibody clone 15 (antibody, V domains shown, rabbit monoclonal antibody, recombinantly expressed and purified for characterization) VH: QSLEESGGDLVKPGTSLTLTCTASGFSFSARHFMYWVRQAPGKGLEWIGCIDIGSGSTYYTSWAKDRFTISKPSSTTVTLQMTSLTAADTATYFCARSSGYPYYFTLWGPGTLVTVSS VL: AVVLTQTTSSVSADVGGTVTIKCQASENIYSLLAWYQQKPGQPPKLLIYSASDLASGVPSRFSGSGFGTEFTLTISDLECADAATYHCQSYYYSGSSADTGAFGGGTEVVVK	
6.25	clone 36 rabbit anti-KDR antibody (antibody, V domains shown, rabbit IgG, recombinantly expressed in 293-6E cells; also called R-36; parental rabbit monoclonal antibody 36) VH: QSVEESGGRLVTPGTPLTLTCTVSGIDLNNYAMSWVRQAPGKGLEWIGIIGSSGSIFYASWAKGRITISKTSTTVDLKFTSLTTEDTATYFCARVLWAGSVAYAYHNIWGPGTLVTVSS VL: DPVMTQTPASVSEPVGGTVTINCQASEELGSNLAWYQQKPGQPPKLLIYSASTLASGVPSRFKGSGSGTEYTLTISDLECADAATYYCQYTYFGSSYLGAFGGGTEVVVK	IC50 [2]: 3.1 nM
5.95	rabbit anti-KDR antibody clone 27 (antibody, V domains shown, rabbit monoclonal antibody, recombinantly expressed and purified for characterization) VH: QSVEESGGRLVTPGTPLTLTCTASGFALNDFAMSWVRQAPGKGLEWIGMIASSGNTFYASWAKGRFTISKTSTTVDLKFTSPTTEDTATYFCARVLWPGYIAYAYHNIWGPGTLVTVSS VL: DPVLTQTPASVSAVVGGTVTINCQTSEDIASNLAWYQQKSGQRPKLLIYEASKLASGVPSRFKGSGSGTEYTLTISDLECADAATYYCQYTYYGSSYLGAFGGGTEVVVK	
